Data on 1 molecule can be found in publication PMC11783452 (iScience, 2024).

For the experiment, the target named is prefusion-stabilized MERS-CoV spike protein, MERS S-2P (MERS-CoV, England1 (isolate United …, UniProt K9N5Q8, stabilised)). Kind of experiment: negative-stain EM.

B1: Anti-MERS-CoV S antibody CDC2-A2, Fab (Fab, V domains shown)
VH: QVQLVESGGGLVKPGGSLRLSCAASGFTFSDYYMSWIRQAPGKGLEWVSYISSSGSTIYYADSVKGRFTISRDNAKNSLYLQMNSLRAEDTAVYYCARVGLGSGWYDWFDPWGQGTLVTVSS
VL: QSALTQPPSVSGAPGQRVTISCTGSSSNIGASYDVHWYQHLPGTAPKLLIYGNTNRPSGVPDRFSGSKSGTSASLAITGLQAEDEADYYCQSYDSSLSGVVFSGGTKLTVL
With B1, the binding result was “binds”.
